In publication PMC13233068, “HSD17B7 is required for the function of sensory hair cells by regulating cholesterol synthesis” (eLife, 2026):

Biological target: T1, GST-HSD17B7 fusion protein (human, UniProt P56937-1 1-341)
T1 construct: HSD17B7 (17β-hydroxysteroid dehydrogenase type 7), human, full-length cDNA amplified from HEK293T cDNA; 341 aa by the domain limits printed (1-229, 230-250, 251-341); also called 17β-Hydroxysteroid dehydrogenase type 7
T1 sequence (looked up): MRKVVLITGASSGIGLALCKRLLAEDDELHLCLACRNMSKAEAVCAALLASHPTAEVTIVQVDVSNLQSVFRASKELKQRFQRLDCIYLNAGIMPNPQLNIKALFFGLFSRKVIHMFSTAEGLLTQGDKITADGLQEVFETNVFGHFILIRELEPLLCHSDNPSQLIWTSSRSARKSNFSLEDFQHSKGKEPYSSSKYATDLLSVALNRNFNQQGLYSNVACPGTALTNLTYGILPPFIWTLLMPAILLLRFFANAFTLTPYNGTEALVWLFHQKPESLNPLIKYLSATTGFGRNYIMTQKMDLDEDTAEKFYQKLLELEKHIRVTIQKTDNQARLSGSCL
Assay: pull-down; GST and GST-HSD17B7 immobilised on GSH resin, incubated with purified His-RER1 overnight at 4°C, washed with 0.3% PBST; Coomassie staining and western blot
Settings: both partners purified

B1: RER1-His (natural protein, human (cDNA from HEK293T), UniProt O15258 1-196, looked up)
chain: MSEGDSVGESVHGKPSVVYRFFTRLGQIYQSWLDKSTPYTAVRWVVTLGLSFVYMIRVYLLQGWYIVTYALGIYHLNLFIAFLSPKVDPSLMEDSDDGPSLPTKQNEEFRPFIRRLPEFKFWHAATKGILVAMVCTFFDAFNVPVFWPILVMYFIMLFCITMKRQIKHMIKYRYIPFTHGKRRYRGKEDAGKAFAS
notes: RER1, full-length cDNA amplified from HEK293T cDNA; The legend prints RER1-His, the methods His-RER1; the pET-23b vector would add a C-terminal His tag (surmised); Detected by immunoblot of the His tag; also called His-RER1; ER retention receptor RER1
  binding result: binds
